Test results: paper doi:10.1101/2024.09.24.614694

Target: CLuc-TaVIH2 (Triticum aestivum (wheat))
Experiment: split reporter

NLuc-TaFLA7 (natural protein)
fold increase of luminescence (RLU) over controls: 7 to 8 fold
